Our source for the Km, kcat and kcat/Km values is paper PMC8303963, “Action of Multiple Rice β-Glucosidases on Abscisic Acid Glucose Ester” (International Journal of Molecular Sciences, 2021).

Broadly, the Km is the substrate concentration at which the rate is half of its maximum. A word on the kcat: it is the maximal rate divided by the concentration of active sites. As a reminder, the kcat/Km is the turnover number divided by the Michaelis constant.

The test system of the data set is T1, CC1=CC(=O)CC(C)(C)[C@@]1(O)/C=C/C(C)=C\C(=O)O[C@@H]1O[C@H](CO)[C@@H](O)[C@H](O)[C@H]1O.
T1 construct: recombinant from E. coli, IMAC purified; N-terminal thioredoxin and His6 tags cut off with enterokinase
Briefly: glucose release by peroxidase/glucose oxidase assay, Michaelis-Menten fit. The class given is biochemical, Oryza sativa. The conditions noted are these: 50 mM sodium acetate pH 5, 30 °C. The source says:
glucose release by peroxidase/glucose oxidase assay, Michaelis-Menten fit on Os4BGlu13

Chain of Os4BGlu13 (Oryza sativa Japonica Group) (chain, as listed by the source): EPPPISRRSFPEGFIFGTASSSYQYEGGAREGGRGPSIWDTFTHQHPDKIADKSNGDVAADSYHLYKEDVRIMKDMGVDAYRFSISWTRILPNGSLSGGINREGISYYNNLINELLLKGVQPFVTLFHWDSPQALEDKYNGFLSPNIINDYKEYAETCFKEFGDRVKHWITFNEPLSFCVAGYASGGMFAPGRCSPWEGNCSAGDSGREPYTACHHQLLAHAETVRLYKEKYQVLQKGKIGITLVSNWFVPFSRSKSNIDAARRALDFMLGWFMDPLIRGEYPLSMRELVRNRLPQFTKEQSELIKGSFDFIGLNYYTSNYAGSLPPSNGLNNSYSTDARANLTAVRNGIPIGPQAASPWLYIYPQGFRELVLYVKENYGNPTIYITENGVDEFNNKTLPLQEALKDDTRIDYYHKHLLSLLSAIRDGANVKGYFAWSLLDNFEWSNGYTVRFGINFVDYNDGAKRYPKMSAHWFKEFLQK

Consider Os4BGlu13 (Oryza sativa Japonica Group), for which the Km amounted to 1660 ± 90 µM, the catalytic constant (kcat) was 20.6 ± 0.5 s⁻¹ and the kcat/Km stood at 12400 M⁻¹ s⁻¹.
